Values belong to the binder of their own block, whether it stands above or below them.
Legend:
[1] = molecular target: T1, cynomolgus CD137, cell-surface (cynomolgus, UniProt Q07011 24-255 (human entry)); assay: cell-based or functional assay
T1 chain: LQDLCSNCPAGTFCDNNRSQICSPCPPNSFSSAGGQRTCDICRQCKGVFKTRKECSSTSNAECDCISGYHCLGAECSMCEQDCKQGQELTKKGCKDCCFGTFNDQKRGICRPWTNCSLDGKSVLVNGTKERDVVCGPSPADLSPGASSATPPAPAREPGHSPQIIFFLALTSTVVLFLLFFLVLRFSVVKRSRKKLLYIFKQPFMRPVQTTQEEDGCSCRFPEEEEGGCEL

[2] = molecular target: human CD137, cell-surface (human, UniProt Q07011 24-255); assay: cell-based or functional assay
[3] = molecular target: human PD-L1, cell-surface (human, UniProt Q9NZQ7 19-290); assay: cell-based or functional assay
human PD-L1, cell-surface, sequence (Q9NZQ7 19-290): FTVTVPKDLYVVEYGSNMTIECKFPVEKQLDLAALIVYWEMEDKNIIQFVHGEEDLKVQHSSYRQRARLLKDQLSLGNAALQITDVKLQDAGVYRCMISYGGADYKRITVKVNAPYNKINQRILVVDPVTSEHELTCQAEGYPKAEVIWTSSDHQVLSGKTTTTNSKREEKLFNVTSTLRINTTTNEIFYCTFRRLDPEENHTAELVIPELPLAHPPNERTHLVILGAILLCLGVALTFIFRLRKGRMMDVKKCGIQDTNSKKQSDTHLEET

hCD137-mFc-Avi = molecular target: T2, hCD137-mFc-Avi (human; mouse, UniProt Q07011 24-186, biotin on the Avi sequence where the biotinylated form was used); assay: flow cytometry of yeast clones with 10 nM dimeric human antigen
T2 construct: also called human CD137-mFc-Avi; dimeric human CD137; not shown: mouse IgG2a Fc domain (mIgG2a Fc)
T2 sequence (Q07011 24-186): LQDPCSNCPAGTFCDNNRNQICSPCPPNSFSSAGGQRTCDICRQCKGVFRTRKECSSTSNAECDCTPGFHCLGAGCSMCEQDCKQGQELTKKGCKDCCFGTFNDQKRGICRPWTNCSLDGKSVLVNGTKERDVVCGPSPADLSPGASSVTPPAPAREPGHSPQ

B1: FS22-053-008-AA/G12v2 (bispecific antibody, human IgG1, kappa, L234A L235A)
heavy: EVQLVQSGAEVKRPGASVKVSCKASGYTFTSYGISWVRQAPGQGLEWMGWISAYSGGTNYAQKLQGRVTMTTDTSTSTAYMELRSLRSDDTAVYYCARDLFPTIFGVSYYYYWGQGTLVTVSSASTKGPSVFPLAPSSKSTSGGTAALGCLVKDYFPEPVTVSWNSGALTSGVHTFPAVLQSSGLYSLSSVVTVPSSSLGTQTYICNVNHKPSNTKVDKKVEPKSCDKTHTCPPCPAPEAAGGPSVFLFPPKPKDTLMISRTPEVTCVVVDVSHEDPEVKFNWYVDGVEVHNAKTKPREEQYNSTYRVVSVLTVLHQDWLNGKEYKCKVSNKALPAPIEKTISKAKGQPREPQVYTLPPSRDELNPPYLFSNQVSLTCLVKGFYPSDIAVEWESNGQPENNYKTTPPVLDSDGSFFLYSKLTVDYWRWLEGNVFSCSVMHEALHNHYTQKSLSLSPG
light: DIQMTQSPSTLSASVGDRVTITCRASQSISGRLAWYQQKPGKAPNLLIYEASNLESGVPSRFSGSGSGTEFTLTISSLQPEDFATYYCQQSYSWPRTFGQGTKVEIKRTVAAPSVFIFPPSDEQLKSGTASVVCLLNNFYPREAKVQWKVDNALQSGNSQESVTEQDSKDSTYSLSSTLTLSKADYEKHKVYACEVTHQGLSSPVTKSFNRGEC
EC50 (nM) (crosslinked), mIL-2 release, DO11.10.cCD137 with HEK.cyPD-L1 [1]: 0.07 nM
Emax (pg/ml) (crosslinked), mIL-2 release, DO11.10.cCD137 with HEK.cyPD-L1 [1]: 9660 pg/mL
EC50 (nM), hIL-2 release, CD8+ T cells, donor 171115A, HEK.hPD-L1 XL [2]: 0.13 nM
EC50 (nM), hIL-2 release, CD8+ T cells, donor 171115A, MDA-MB-231 XL [2]: 0.02 nM
EC50 (nM), hIL-2 release, CD8+ T cells, donor 171115B, HEK.hPD-L1 XL [2]: 0.12 nM
EC50 (nM), hIL-2 release, CD8+ T cells, donor 171115B, MDA-MB-231 XL [2]: 0.02 nM

B2: FS22-053-017-AA/E12v2 (bispecific antibody, human IgG1, kappa, L234A L235A)
heavy: EVQLVQSGAEVKRPGASVKVSCKASGYPFTSYGISWVRQAPGQGLEWMGWISAYSGGTNYAQKLQGRVTMTTDTSTSTAYMELRSLRSDDTAVYYCARDLFPTIFGVSYYYYWGQGTLVTVSSASTKGPSVFPLAPSSKSTSGGTAALGCLVKDYFPEPVTVSWNSGALTSGVHTFPAVLQSSGLYSLSSVVTVPSSSLGTQTYICNVNHKPSNTKVDKKVEPKSCDKTHTCPPCPAPEAAGGPSVFLFPPKPKDTLMISRTPEVTCVVVDVSHEDPEVKFNWYVDGVEVHNAKTKPREEQYNSTYRVVSVLTVLHQDWLNGKEYKCKVSNKALPAPIEKTISKAKGQPREPQVYTLPPSRDELNPPYLFSNQVSLTCLVKGFYPSDIAVEWESNGQPENNYKTTPPVLDSDGSFFLYSKLTVYHWRWLEGNVFSCSVMHEALHNHYTQKSLSLSPG
light: DIQMTQSPSTLSASVRDRVIITCRASQSIGNRLAWYQHKPGKAPKLLIYEASTSETGVPSRFSGSGSGTDFTLTISSLQPEDFATYYCQQSYSTPYTFGQGTKLEIKRTVAAPSVFIFPPSDEQLKSGTASVVCLLNNFYPREAKVQWKVDNALQSGNSQESVTEQDSKDSTYSLSSTLTLSKADYEKHKVYACEVTHQGLSSPVTKSFNRGEC
EC50 (nM) (crosslinked), mIL-2 release, DO11.10.cCD137 with HEK.cyPD-L1 [1]: 0.11 nM
Emax (pg/ml) (crosslinked), mIL-2 release, DO11.10.cCD137 with HEK.cyPD-L1 [1]: 9360 pg/mL
EC50 (nM), hIL-2 release, CD8+ T cells, donor 171115A, HEK.hPD-L1 XL [2]: 0.11 nM
EC50 (nM), hIL-2 release, CD8+ T cells, donor 171115A, MDA-MB-231 XL [2]: 0.01 nM
EC50 (nM), hIL-2 release, CD8+ T cells, donor 171115B, HEK.hPD-L1 XL [2]: 0.12 nM
EC50 (nM), hIL-2 release, CD8+ T cells, donor 171115B, MDA-MB-231 XL [2]: 0.01 nM
EC50 (nM), IFN-γ release, human MLR [3]: 0.04 nM
Emax (pg/ml), IFN-γ release, human MLR [3]: 3330 pg/mL

B3: FS22-053-017-AA/E05v2 (bispecific antibody, human IgG1, kappa, L234A L235A)
heavy: EVQLVQSGAEVKRPGASVKVSCKASGYTFTSYGISWVRQAPGQGLEWMGWISAYSGGTNYAQKLQGRVTMTTDTSTSTAYMELRSLRSDDTAVYYCARDLFPTIFGVSYYYYWGQGTLVTVSSASTKGPSVFPLAPSSKSTSGGTAALGCLVKDYFPEPVTVSWNSGALTSGVHTFPAVLQSSGLYSLSSVVTVPSSSLGTQTYICNVNHKPSNTKVDKKVEPKSCDKTHTCPPCPAPEAAGGPSVFLFPPKPKDTLMISRTPEVTCVVVDVSHEDPEVKFNWYVDGVEVHNAKTKPREEQYNSTYRVVSVLTVLHQDWLNGKEYKCKVSNKALPAPIEKTISKAKGQPREPQVYTLPPSRDELNPPYLFSNQVSLTCLVKGFYPSDIAVEWESNGQPENNYKTTPPVLDSDGSFFLYSKLTVYHWRWLEGNVFSCSVMHEALHNHYTQKSLSLSPG
light: DIQMTQSPSTLSASVGDRVTITCRASQSISGRLAWYQQKPGKAPNLLIYEASNLESGVPSRFSGSGSGTEFTLTISSLQPEDFATYYCQQSYSTPRVTFGQGTKVEIKRTVAAPSVFIFPPSDEQLKSGTASVVCLLNNFYPREAKVQWKVDNALQSGNSQESVTEQDSKDSTYSLSSTLTLSKADYEKHKVYACEVTHQGLSSPVTKSFNRGEC
EC50 (nM) (crosslinked), mIL-2 release, DO11.10.cCD137 with HEK.cyPD-L1 [1]: 0.1 nM
Emax (pg/ml) (crosslinked), mIL-2 release, DO11.10.cCD137 with HEK.cyPD-L1 [1]: 9020 pg/mL
EC50 (nM), hIL-2 release, CD8+ T cells, donor 171115A, HEK.hPD-L1 XL [2]: 0.15 nM
EC50 (nM), hIL-2 release, CD8+ T cells, donor 171115A, MDA-MB-231 XL [2]: 0.01 nM
EC50 (nM), hIL-2 release, CD8+ T cells, donor 171115B, HEK.hPD-L1 XL [2]: 0.12 nM
EC50 (nM), hIL-2 release, CD8+ T cells, donor 171115B, MDA-MB-231 XL [2]: 0.01 nM

B5: FS22-172-004 Fcab clone displayed on yeast (designed binder)
chain: GQPREPQVYTLPPSRDELNYIYPPYNQVSLTCLVKGFYPSDIAVEWESNGQPENNYKTTPPVLDSDGSFFLYSKLTVGADRWLEGNVFSCSVMHEALHNHYTQKSLSLSPG
% APC positive cells (hCD137-mFc-Avi): > 10%

B7: FS22-053-012 Fcab clone displayed on yeast (designed binder)
chain: GQPREPQVYTLPPSRDELNPPYLFSNQVSLTCLVKGFYPSDIAVEWESNGQPENNYKTTPPVLDSDGSFFLYSKLTVDHMRWLEGNVFSCSVMHEALHNHYTQKSLSLSPG
notes: yeast display clone, FS22-053 EF library
% APC positive cells (hCD137-mFc-Avi): > 30%

B11: FS22-053-010 Fcab clone displayed on yeast (designed binder)
chain: GQPREPQVYTLPPSRDELNPPYLFSNQVSLTCLVKGFYPSDIAVEWESNGQPENNYKTTPPVLDSDGSFFLYSKLTVDYMRWLDGNVFSCSVMHEALHNHYTQKSLSLSPG
notes: as for B7
% APC positive cells (hCD137-mFc-Avi): > 30%

B12: FS22-053-009 Fcab clone displayed on yeast (designed binder)
chain: GQPREPQVYTLPPSRDELNPPYLFSNQVSLTCLVKGFYPSDIAVEWESNGQPENNYKTTPPVLDSDGSFFLYSKLTVEHTRWLDGNVFSCSVMHEALHNHYTQKSLSLSPG
notes: as for B7
% APC positive cells (hCD137-mFc-Avi): > 30%

B13: FS22-053-011 Fcab clone displayed on yeast (designed binder)
chain: GQPREPQVYTLPPSRDELNPPYLFSNQVSLTCLVKGFYPSDIAVEWESNGQPENNYKTTPPVLDSDGSFFLYSKLTVDYWRWTDGNVFSCSVMHEALHNHYTQKSLSLSPG
notes: as for B7
% APC positive cells (hCD137-mFc-Avi): > 30%

B15: FS22-053-008 Fcab clone displayed on yeast (designed binder)
chain: GQPREPQVYTLPPSRDELNPPYLFSNQVSLTCLVKGFYPSDIAVEWESNGQPENNYKTTPPVLDSDGSFFLYSKLTVDYWRWLEGNVFSCSVMHEALHNHYTQKSLSLSPG
notes: as for B7
% APC positive cells (hCD137-mFc-Avi): > 30%

Results, then the binder that gave them:

EC50 (nM) (crosslinked), mIL-2 release, DO11.10.cCD137 with HEK.cyPD-L1 [1]: 0.08 nM
Emax (pg/ml) (crosslinked), mIL-2 release, DO11.10.cCD137 with HEK.cyPD-L1 [1]: 8930 pg/mL
EC50 (nM), hIL-2 release, CD8+ T cells, donor 171115A, HEK.hPD-L1 XL [2]: 0.1 nM
EC50 (nM), hIL-2 release, CD8+ T cells, donor 171115A, MDA-MB-231 XL [2]: 0.01 nM
EC50 (nM), hIL-2 release, CD8+ T cells, donor 171115B, HEK.hPD-L1 XL [2]: 0.2 nM
EC50 (nM), hIL-2 release, CD8+ T cells, donor 171115B, MDA-MB-231 XL [2]: 0.01 nM
B4: FS22-053-017-AA/G12v2 (bispecific antibody, human IgG1, kappa, L234A L235A)
heavy: EVQLVQSGAEVKRPGASVKVSCKASGYTFTSYGISWVRQAPGQGLEWMGWISAYSGGTNYAQKLQGRVTMTTDTSTSTAYMELRSLRSDDTAVYYCARDLFPTIFGVSYYYYWGQGTLVTVSSASTKGPSVFPLAPSSKSTSGGTAALGCLVKDYFPEPVTVSWNSGALTSGVHTFPAVLQSSGLYSLSSVVTVPSSSLGTQTYICNVNHKPSNTKVDKKVEPKSCDKTHTCPPCPAPEAAGGPSVFLFPPKPKDTLMISRTPEVTCVVVDVSHEDPEVKFNWYVDGVEVHNAKTKPREEQYNSTYRVVSVLTVLHQDWLNGKEYKCKVSNKALPAPIEKTISKAKGQPREPQVYTLPPSRDELNPPYLFSNQVSLTCLVKGFYPSDIAVEWESNGQPENNYKTTPPVLDSDGSFFLYSKLTVYHWRWLEGNVFSCSVMHEALHNHYTQKSLSLSPG
light: DIQMTQSPSTLSASVGDRVTITCRASQSISGRLAWYQQKPGKAPNLLIYEASNLESGVPSRFSGSGSGTEFTLTISSLQPEDFATYYCQQSYSWPRTFGQGTKVEIKRTVAAPSVFIFPPSDEQLKSGTASVVCLLNNFYPREAKVQWKVDNALQSGNSQESVTEQDSKDSTYSLSSTLTLSKADYEKHKVYACEVTHQGLSSPVTKSFNRGEC

% APC positive cells (hCD137-mFc-Avi): > 10%
B6: FS22-172-006 Fcab clone displayed on yeast (designed binder)
chain: GQPREPQVYTLPPSRDELRKYYPPYNQLSLTCLVKGFYPSDIAVEWESNGQPENNYKTTPPVLDSDGSFFLYSKLTVGADRWLEGNVFSCSVMHEALHNHYTQKSLSLSPG

% APC positive cells (hCD137-mFc-Avi): > 10%
B8: FS22-172-001 Fcab clone displayed on yeast (designed binder)
chain: GQPREPQVYTLPPSRDELPFVMPPYNQVSLTCLVKGFYPSDIAVEWESNGQPENNYKTTPPVLDSDGSFFLYSKLTVGADRWLEGNVFSCSVMHEALHNHYTQKSLSLSPG

% APC positive cells (hCD137-mFc-Avi): > 10%
B9: FS22-172-005 Fcab clone displayed on yeast (designed binder)
chain: GQPREPQVYTLPPSRDELQQVYPPYNQVSLTCLVKGFYPSDIAVEWESNGQPENNYKTTPPVLDSDGSFFLYSKLTVGADRWLEGNVFSCSVMHEALHNHYTQKSLSLSPG

% APC positive cells (hCD137-mFc-Avi): > 10%
B10: FS22-172-003 Fcab clone displayed on yeast (designed binder)
chain: GQPREPQVYTLPPSRDELPYIIPPYNQVSLTCLVKGFYPSDIAVEWESNGQPENNYKTTPPVLDSDGSFFLYSKLTVGADRWLEGNVFSCSVMHEALHNHYTQKSLSLSPG

% APC positive cells (hCD137-mFc-Avi): > 10%
B14: FS22-172-002 Fcab clone displayed on yeast (designed binder)
chain: GQPREPQVYTLPPSRDELPFQMPPYNQVSLTCLVKGFYPSDIAVEWESNGQPENNYKTTPPVLDSDGSFFLYSKLTVGADRWLEGNVFSCSVMHEALHNHYTQKSLSLSPG

From patent publication US20250346679A1 (INVOX PHARMA, published 2025)
